We go through five molecules from patent US5308529A, “System for enhancing release of acids from anhydride precursors using esterase catalysts” (Lever Brothers Company, Division of Conopco, Inc., priority 1992, dated 1994).

Holding throughout (format): biochemical
Test [1] can be described thus: Enzymatic hydrolysis of phthalic anhydride. As to conditions: 5.0 mM phthalic anhydride; 60.77 EU/g enzyme; room temperature, 50% acetonitrile/water. The method, then:
The reaction was carried out at room temperature in a mixed solvent system (50% acetonitrile/water). The buffer and water hardness concentration were identical to that used for the benzoic anhydride systems.

Test [2] in a line: Enzymatic hydrolysis of benzoic anhydride at pH 5.00 and 10.0 (HPLC). Conditions: 0.5 mM benzoic anhydride, 50% acetonitrile/water, room temperature, background hydrolysis subtracted. The procedure: A 50% acetronitrile/water system was used in the presence of 120 ppm water hardness solution (2:1 calcium:magnesium), 0.5 mM benzoic anhydride, and 25 ppm acenaphthylene internal standard. The following buffer systems were utilized:
For pH 5.00: 10 mM sodium citrate, adjusted to pH 5.00 with 0.1 citric acid.
For pH 10.0: 10 mM triethanolamine, adjusted to pH 10.0 with 0.1M hydrochloric acid.
All reactions were run on a 10 mL scale at room temperature for a total of 5.00 min. The benzoic anhydride and internal standard were added from a stock solution which was 1.0M benzoic anhydride and […] acenaphthylene in 100% acetonitrile. A total of 5.0 μL of this stock was used (yielding a 1:2000 dilution) to make each reaction 0.5 mM benzoic anhydride and 25 ppm acenaphthylene. Benzoic acid produced was measured by HPLC (high pressure liquid chromatography) using the acenaphthylene internal standard as a reference.

Test [3] can be described thus: Rate of benzoic acid formation from benzoic anhydride by enzymes with esterase activity (HPLC). Conditions: 50 μM benzoic anhydride, -10 deg. C., pH 7, 5 mins, 60% glycerol/water. The method, then: Standard reaction conditions for the rate determinations in Table 1 are as follows: 60% glycerol/water (w/w), 120 ppm hardness (2:1 Ca:Mg), 10 mM Triethanolamine adjusted to pH 7 with HCl, and […] benzoic anhydride. All incubations were at -10 deg. centigrade for 5 mins. Benzoic acid produced was measured by HPLC via an internal standard (acenaphthylene).
Various enzymes with esterase activity (lipases, esterases, proteases) were tested against benzoic anhydride to determine the rate of formation of acid. As a control, the effect on benzoic anhydride when no esterase was present (i.e., heat killed lipolase) was also measured.

B1: Genex 8397: protease; mutant of subtilisin BPN' with MET50→PHE, ASN76→ASP, GLY169→ALA, GLN206→CYS, ASN218→SER (protein, UniProt P00782 108-382, looked up, variant M50F N76D G169A Q206C N218S)
Subtilisin BPN': AQSVPYGVSQIKAPALHSQGYTGSNVKVAVIDSGIDSSHPDLKVAGGASFVPSETNPFQDNNSHGTHVAGTVAALDNSIGVLGVAPSASLYAVKVLGADGSGQYSWIINGIEWAIANNMDVINMSLGGPSGSAALKAAVDKAVASGVVVVAAAGNEGTSGSSSTVGYPAKYPSVIAVGAVDSSNQRASFSSVGPELDVMAPGVSICSTLPGNKYGAYSGTSMASPHVAGAAALILSKHPNWTNTQVRSSLENTTTKLGDSFYYGKGLINVQAAAQ
Turning to B1, in test [1], the “Rate (μmol BA/EU/min)” value was 3.03 × 10^-3 μmol BA/EU/min. The “Reaction over 5.00 min.” value in test [2] (pH 5.00, 60.0 EU/g. enzyme) stood at 22.34%; in test [2] (pH 10.0, 3.04 EU/g. enzyme) it was 63.23%.

B2: Papain: enzyme listed under Proteases in Table 1 (protein, UniProt P00784 134-345, looked up)
Papain: IPEYVDWRQKGAVTPVKNQGSCGSCWAFSAVVTIEGIIKIRTGNLNEYSEQELLDCDRRSYGCNGGYPWSALQLVAQYGIHYRNTYPYEGVQRYCRSREKGPYAAKTDGVRQVQPYNEGALLYSIANQPVSVVLEAAGKDFQLYRGGIFVGPCGNKVDHAVAAVGYGPNYILIKNSWGTGWGENGYIRIKRGTGNSYGVCGLYTSSFYPVKN
Take B2: the “Rate (uMol Benzoic Acid prod./enzyme unit/min)” value in test [3] (enzyme unit = esterase unit) is listed as 6.2 E-3 uMol Benzoic Acid prod./enzyme.

B3: Lipolase: lipase from Humicola lanuginosa gene expressed in Aspergillus oryzae, commercially available from NOVO Industri A/S (protein, UniProt O59952 23-291, looked up)
Lipase: EVSQDLFNQFNLFAQYSAAAYCGKNNDAPAGTNITCTGNACPEVEKADATFLYSFEDSGVGDVTGFLALDNTNKLIVLSFRGSRSIENWIGNLNFDLKEINDICSGCRGHDGFTSSWRSVADTLRQKVEDAVREHPDYRVVFTGHSLGGALATVAGADLRGNGYDIDVFSYGAPRVGNRAFAEFLTVQTGGTLYRITHTNDIVPRLPPREFGYSHSSPEYWIKSGTLVPVTRNDIVKIEGIDATGGNNQPNIPDIPAHLWYFGLIGTCL
As for B3, the “Reaction over 5.00 min.” value in test [2] (pH 5.00, 50.0 EU/g. enzyme) is given as 33.30%; in test [2] (pH 10.0, 15.0 EU/g. enzyme), 86.06%.

B4: Heat Killed Lipolase: control: heat killed lipolase, i.e. no esterase present (protein, UniProt O59952 23-291, looked up)
Lipase: B3 Lipase
modifications: heat-inactivated
notes: control: heat killed lipolase, i.e. no esterase present
B4: the “Rate (uMol Benzoic Acid prod./enzyme unit/min)” value in test [3] (control, no unit assay printed) is on record as 0 uMol Benzoic Acid prod./enzyme.

B5: Humicola languinosa: lipase ex Humicola lanuginosa (listed under Lipases) (protein, UniProt O59952 23-291, looked up)
Lipase: B3 Lipase
In the case of B5, in test [3] (enzyme unit = lipase unit), the “Rate (uMol Benzoic Acid prod./enzyme unit/min)” value was 1.08 E-1 uMol Benzoic Acid prod./enzyme.
